Experimental data taken from US20230002480A1.

How the values were obtained:
Experiment in all cases: cell-based or functional assay
[1] = target: HIV-1 Env of pseudovirus 6952.v1.c20 (HIV-1)
[2] = target: HIV-1 Env of pseudovirus 6811.v7.c18 (HIV-1)
[3] = target: HIV-1 Env of pseudovirus 6480.v4.c25 (HIV-1)
[4] = target: HIV-1 Env of pseudovirus BJOX025000.01.1 (HIV-1)
[5] = target: HIV-1 Env of pseudovirus C1080.c03 (HIV-1)
[6] = target: HIV-1 Env of pseudovirus REJO4541.67 (HIV-1)
[7] = target: HIV-1 Env of pseudovirus 3016.v5.c45 (HIV-1)
[8] = target: HIV-1 Env of pseudovirus ZM109F.PB4 (HIV-1)
[9] = target: HIV-1 Env of pseudovirus Ce2010_F5 (HIV-1)
[10] = target: HIV-1 Env of pseudovirus RHPA4259.7 (HIV-1)
[11] = target: HIV-1 Env of pseudovirus CNE30 (HIV-1)
[12] = target: HIV-1 Env of pseudovirus CNE8 (HIV-1)
[13] = target: HIV-1 Env of pseudovirus BJOX015000.11.5 (HIV-1)
[14] = target: HIV-1 Env of pseudovirus AC10.0.29 (HIV-1)
[15] = target: HIV-1 Env of pseudovirus T251-18 (HIV-1)
[16] = target: HIV-1 Env of pseudovirus HIV-001428-2.42 (HIV-1)
[17] = target: HIV-1 Env of pseudovirus T257-31 (HIV-1)
[18] = target: HIV-1 Env of pseudovirus 6240_08_TA5_4622 (HIV-1)
[19] = target: HIV-1 Env of pseudovirus QH0692.42 (HIV-1)
[20] = target: HIV-1 Env of pseudovirus A07412M1.vrc12 (HIV-1)
[21] = target: HIV-1 Env of pseudovirus 1006_11_C3_1601 (HIV-1)
[22] = target: HIV-1 Env of pseudovirus Ce703010054_2A2 (HIV-1)
[23] = target: HIV-1 Env of pseudovirus 0815.v3.c3 (HIV-1)
[24] = target: HIV-1 Env of pseudovirus Du422.1 (HIV-1)
[25] = target: HIV-1 Env of pseudovirus Q23.17 (HIV-1)
[26] = target: HIV-1 Env of pseudovirus Q842.d12 (HIV-1)
[27] = target: HIV-1 Env of pseudovirus T278-50 (HIV-1)
[28] = target: HIV-1 Env of pseudovirus SC05_8C11_2344 (HIV-1)
[29] = target: HIV-1 Env of pseudovirus ZM247v1(Rev-) (HIV-1)
[30] = target: HIV-1 Env of pseudovirus CNE21 (HIV-1)
[31] = target: HIV-1 Env of pseudovirus 62357_14_D3_4589 (HIV-1)
[32] = target: HIV-1 Env of pseudovirus 6535.3 (HIV-1)

B1: N49P22 (antibody, V domains shown)
V domain 1: HIQLLQSGPQVKKSGDTVRISCETSGYNFVDSRIHWVRQTPEKRLRWMGWINPLQGGVNYAPEFQGRIRMTRDTFIDTVYVDLSGLTPADTAYYYCARGIDGKSYPFHFWGHGTRVTVFS
V domain 2: RFALTQPASVSGSPGQTITITCAGGSVSWFHFPPGKTPRLIIYESSKRPSGVSPRFSGSQSGSTASLIISGLQSDDEGTYFCSILEFFGRGTLVTVLS
B1 gave an IC50 [1] of 33.2 mg/L, an IC80 [1] greater than 50 mg/L and an MPI [1] of 56. The IC50 [2] was 1 mg/L, the IC80 [2] was 9.72 mg/L and the MPI [2] was 92. It also gave an IC50 [3] of 0.809 mg/L, an IC80 [3] of 32.1 mg/L and an MPI [3] of 86. It also gave an IC50 [4] greater than 50 mg/L, an IC80 [4] greater than 50 mg/L and an MPI [4] of 0. For the same binder, the IC50 [5] was 15.9 mg/L, the IC80 [5] was greater than 50 mg/L and the MPI [5] was 64. The IC50 [6] was 0.792 mg/L, the IC80 [6] was 12.1 mg/L and the MPI [6] was 84. It also gave an IC50 [7] greater than 50 mg/L, an IC80 [7] greater than 50 mg/L and an MPI [7] of 23. The IC50 [8] was greater than 50 mg/L, the IC80 [8] was greater than 50 mg/L and the MPI [8] was 1. For the same binder, the IC50 [9] was 2.05 mg/L, the IC80 [9] was 11.7 mg/L and the MPI [9] was 93. It also gave an IC50 [10] of 0.637 mg/L, an IC80 [10] of 5.6 mg/L and an MPI [10] of 92. For the same binder, the IC50 [11] was greater than 50 mg/L, the IC80 [11] was greater than 50 mg/L and the MPI [11] was 30. The IC50 [12] was 5.35 mg/L, the IC80 [12] was 40.4 mg/L and the MPI [12] was 86. For the same binder, the IC50 [13] was 1.26 mg/L, the IC80 [13] was 10.8 mg/L and the MPI [13] was 89. For the same binder, the IC50 [14] was greater than 50 mg/L, the IC80 [14] was greater than 50 mg/L and the MPI [14] was 0. For the same binder, the IC50 [15] was 0.58 mg/L, the IC80 [15] was 3.09 mg/L and the MPI [15] was 99. The IC50 [16] was 0.73 mg/L, the IC80 [16] was 7.1 mg/L and the MPI [16] was 91. The IC50 [17] was greater than 50 mg/L, the IC80 [17] was greater than 50 mg/L and the MPI [17] was 43. The IC50 [18] was 2.33 mg/L, the IC80 [18] was 9.76 mg/L and the MPI [18] was 93. It also gave an IC50 [19] of 0.592 mg/L, an IC80 [19] of 2.02 mg/L and an MPI [19] of 100. It also gave an IC50 [20] of 9.6 mg/L, an IC80 [20] greater than 50 mg/L and an MPI [20] of 63. It also gave an IC50 [21] of 0.898 mg/L, an IC80 [21] of 14.7 mg/L and an MPI [21] of 83. The IC50 [22] was greater than 50 mg/L, the IC80 [22] was greater than 50 mg/L and the MPI [22] was 0. It also gave an IC50 [23] of 0.161 mg/L, an IC80 [23] of 1.08 mg/L and an MPI [23] of 98. The IC50 [24] was greater than 50 mg/L, the IC80 [24] was greater than 50 mg/L and the MPI [24] was 4. The IC50 [25] was 0.321 mg/L, the IC80 [25] was 2.4 mg/L and the MPI [25] was 96. For the same binder, the IC50 [26] was 0.079 mg/L, the IC80 [26] was 0.359 mg/L and the MPI [26] was 100. The IC50 [27] was greater than 50 mg/L, the IC80 [27] was greater than 50 mg/L and the MPI [27] was 25. It also gave an IC50 [28] of 0.251 mg/L, an IC80 [28] of 2.16 mg/L and an MPI [28] of 97. For the same binder, the IC50 [29] was greater than 50 mg/L, the IC80 [29] was greater than 50 mg/L and the MPI [29] was 11. It also gave an IC50 [30] greater than 50 mg/L, an IC80 [30] greater than 50 mg/L and an MPI [30] of 0. It also gave an IC50 [31] greater than 50 mg/L, an IC80 [31] greater than 50 mg/L and an MPI [31] of 13. For the same binder, the IC50 [32] was greater than 50 mg/L, the IC80 [32] was greater than 50 mg/L and the MPI [32] was 5.
